Target: T1, DS-Cav1 RSV F (respiratory syncytial virus)
T1 construct: also called DC-VCav1
Assay: ELISA on DS-Cav1 RSV F

Row | Binder | EC50
1 | MPH12 VH-D62E / MPH12 VL-D25S (antibody, V domains shown, MPH12 variant; VH and VL only) VH: QVQLVESGGGLVKPGGSLRLSCVASGFTFSGFYMKWIRQAPGKGLEWVSSISASGSYTNYAESVEGRFTVSRDNAKNSLFLLMSSLRAEDTAVYYCARGDSYCGASACHGEFFHKWGQGTLVTVSS VL: QSVLTQPPSVSGAPGQRVTISCTGSSSNIGADFDVHWYQQLPGTAPKLLIYGNINRPSGVPDRFSGSRSGTSAFLAITRLQAEDEADYYCQSYDRSLHYVFGAGTKVTVL | 0.0236 µg/mL
2 | MPH12 VH-S63A / MPH12 VL-D25E (antibody, V domains shown, MPH12 variant; VH and VL only) VH: QVQLVESGGGLVKPGGSLRLSCVASGFTFSGFYMKWIRQAPGKGLEWVSSISASGSYTNYADAVEGRFTVSRDNAKNSLFLLMSSLRAEDTAVYYCARGDSYCGASACHGEFFHKWGQGTLVTVSS VL: QSVLTQPPSVSGAPGQRVTISCTGSESNIGADFDVHWYQQLPGTAPKLLIYGNINRPSGVPDRFSGSRSGTSAFLAITRLQAEDEADYYCQSYDRSLHYVFGAGTKVTVL | 0.0406 µg/mL
3 | MPH12 VH-FRGL-D62E / MPH12 VL (antibody, V domains shown, MPH12 variant; VH and VL only) VH: QVQLVESGGGLVKPGGSLRLSCAASGFTFSGFYMKWIRQAPGKGLEWVSSISASGSYTNYAESVEGRFTISRDNAKNSLYLQMNSLRAEDTAVYYCARGDSYCGASACHGEFFHKWGQGTLVTVSS VL: QSVLTQPPSVSGAPGQRVTISCTGSDSNIGADFDVHWYQQLPGTAPKLLIYGNINRPSGVPDRFSGSRSGTSAFLAITRLQAEDEADYYCQSYDRSLHYVFGAGTKVTVL | 0.051 µg/mL
4 | MPH12 VH / MPH12 VL-S26A (antibody, V domains shown, MPH12 variant; VH and VL only) VH: QVQLVESGGGLVKPGGSLRLSCVASGFTFSGFYMKWIRQAPGKGLEWVSSISASGSYTNYADSVEGRFTVSRDNAKNSLFLLMSSLRAEDTAVYYCARGDSYCGASACHGEFFHKWGQGTLVTVSS VL: QSVLTQPPSVSGAPGQRVTISCTGSDANIGADFDVHWYQQLPGTAPKLLIYGNINRPSGVPDRFSGSRSGTSAFLAITRLQAEDEADYYCQSYDRSLHYVFGAGTKVTVL | 0.0508 µg/mL
5 | MPH12 VH-S63A / MPH12 VL (antibody, V domains shown, MPH12 variant; VH and VL only) VH: QVQLVESGGGLVKPGGSLRLSCVASGFTFSGFYMKWIRQAPGKGLEWVSSISASGSYTNYADAVEGRFTVSRDNAKNSLFLLMSSLRAEDTAVYYCARGDSYCGASACHGEFFHKWGQGTLVTVSS VL: QSVLTQPPSVSGAPGQRVTISCTGSDSNIGADFDVHWYQQLPGTAPKLLIYGNINRPSGVPDRFSGSRSGTSAFLAITRLQAEDEADYYCQSYDRSLHYVFGAGTKVTVL | 0.0358 µg/mL
6 | MPH12 VH-FRGL-S63A / MPH12 VL-FRGL (antibody, V domains shown, MPH12 variant; VH and VL only) VH: QVQLVESGGGLVKPGGSLRLSCAASGFTFSGFYMKWIRQAPGKGLEWVSSISASGSYTNYADAVEGRFTISRDNAKNSLYLQMNSLRAEDTAVYYCARGDSYCGASACHGEFFHKWGQGTLVTVSS VL: QSVLTQPPSVSGAPGQRVTISCTGSDSNIGADFDVHWYQQLPGTAPKLLIYGNINRPSGVPDRFSGSKSGTSASLAITGLQAEDEADYYCQSYDRSLHYVFGTGTKVTVL | 0.0153 µg/mL
7 | MPH12 VH / MPH12 VL-D25E (antibody, V domains shown, MPH12 variant; VH and VL only) VH: QVQLVESGGGLVKPGGSLRLSCVASGFTFSGFYMKWIRQAPGKGLEWVSSISASGSYTNYADSVEGRFTVSRDNAKNSLFLLMSSLRAEDTAVYYCARGDSYCGASACHGEFFHKWGQGTLVTVSS VL: QSVLTQPPSVSGAPGQRVTISCTGSESNIGADFDVHWYQQLPGTAPKLLIYGNINRPSGVPDRFSGSRSGTSAFLAITRLQAEDEADYYCQSYDRSLHYVFGAGTKVTVL | 0.0438 µg/mL
8 | MPH12 VH-S63A / MPH12 VL-D25S (antibody, V domains shown, MPH12 variant; VH and VL only) VH: QVQLVESGGGLVKPGGSLRLSCVASGFTFSGFYMKWIRQAPGKGLEWVSSISASGSYTNYADAVEGRFTVSRDNAKNSLFLLMSSLRAEDTAVYYCARGDSYCGASACHGEFFHKWGQGTLVTVSS VL: QSVLTQPPSVSGAPGQRVTISCTGSSSNIGADFDVHWYQQLPGTAPKLLIYGNINRPSGVPDRFSGSRSGTSAFLAITRLQAEDEADYYCQSYDRSLHYVFGAGTKVTVL | 0.0249 µg/mL
9 | MPH12 VH-D62E / MPH12 VL (antibody, V domains shown, MPH12 variant; VH and VL only) VH: QVQLVESGGGLVKPGGSLRLSCVASGFTFSGFYMKWIRQAPGKGLEWVSSISASGSYTNYAESVEGRFTVSRDNAKNSLFLLMSSLRAEDTAVYYCARGDSYCGASACHGEFFHKWGQGTLVTVSS VL: QSVLTQPPSVSGAPGQRVTISCTGSDSNIGADFDVHWYQQLPGTAPKLLIYGNINRPSGVPDRFSGSRSGTSAFLAITRLQAEDEADYYCQSYDRSLHYVFGAGTKVTVL | 0.0241 µg/mL
10 | MPH12 VH-FRGL-D62E / MPH12 VL-D25E (antibody, V domains shown, MPH12 variant; VH and VL only) VH: QVQLVESGGGLVKPGGSLRLSCAASGFTFSGFYMKWIRQAPGKGLEWVSSISASGSYTNYAESVEGRFTISRDNAKNSLYLQMNSLRAEDTAVYYCARGDSYCGASACHGEFFHKWGQGTLVTVSS VL: QSVLTQPPSVSGAPGQRVTISCTGSESNIGADFDVHWYQQLPGTAPKLLIYGNINRPSGVPDRFSGSRSGTSAFLAITRLQAEDEADYYCQSYDRSLHYVFGAGTKVTVL | 0.0397 µg/mL
11 | MPH12 VH-S63A / MPH12 VL-S26A (antibody, V domains shown, MPH12 variant; VH and VL only) VH: QVQLVESGGGLVKPGGSLRLSCVASGFTFSGFYMKWIRQAPGKGLEWVSSISASGSYTNYADAVEGRFTVSRDNAKNSLFLLMSSLRAEDTAVYYCARGDSYCGASACHGEFFHKWGQGTLVTVSS VL: QSVLTQPPSVSGAPGQRVTISCTGSDANIGADFDVHWYQQLPGTAPKLLIYGNINRPSGVPDRFSGSRSGTSAFLAITRLQAEDEADYYCQSYDRSLHYVFGAGTKVTVL | 0.0258 µg/mL
12 | MPH12 VH-FRGL-S63A / MPH12 VL-D25E (antibody, V domains shown, MPH12 variant; VH and VL only) VH: QVQLVESGGGLVKPGGSLRLSCAASGFTFSGFYMKWIRQAPGKGLEWVSSISASGSYTNYADAVEGRFTISRDNAKNSLYLQMNSLRAEDTAVYYCARGDSYCGASACHGEFFHKWGQGTLVTVSS VL: QSVLTQPPSVSGAPGQRVTISCTGSESNIGADFDVHWYQQLPGTAPKLLIYGNINRPSGVPDRFSGSRSGTSAFLAITRLQAEDEADYYCQSYDRSLHYVFGAGTKVTVL | 0.0368 µg/mL
13 | MPH12 VH-D62E / MPH12 VL-S26A (antibody, V domains shown, MPH12 variant; VH and VL only) VH: QVQLVESGGGLVKPGGSLRLSCVASGFTFSGFYMKWIRQAPGKGLEWVSSISASGSYTNYAESVEGRFTVSRDNAKNSLFLLMSSLRAEDTAVYYCARGDSYCGASACHGEFFHKWGQGTLVTVSS VL: QSVLTQPPSVSGAPGQRVTISCTGSDANIGADFDVHWYQQLPGTAPKLLIYGNINRPSGVPDRFSGSRSGTSAFLAITRLQAEDEADYYCQSYDRSLHYVFGAGTKVTVL | 0.031 µg/mL
14 | MPH12 VH / MPH12 VL-FRGL (antibody, V domains shown, MPH12 variant; VH and VL only) VH: QVQLVESGGGLVKPGGSLRLSCVASGFTFSGFYMKWIRQAPGKGLEWVSSISASGSYTNYADSVEGRFTVSRDNAKNSLFLLMSSLRAEDTAVYYCARGDSYCGASACHGEFFHKWGQGTLVTVSS VL: QSVLTQPPSVSGAPGQRVTISCTGSDSNIGADFDVHWYQQLPGTAPKLLIYGNINRPSGVPDRFSGSKSGTSASLAITGLQAEDEADYYCQSYDRSLHYVFGTGTKVTVL | 0.0358 µg/mL
15 | MPH12 VH-S63A / MPH12 VL-FRGL (antibody, V domains shown, MPH12 variant; VH and VL only) VH: QVQLVESGGGLVKPGGSLRLSCVASGFTFSGFYMKWIRQAPGKGLEWVSSISASGSYTNYADAVEGRFTVSRDNAKNSLFLLMSSLRAEDTAVYYCARGDSYCGASACHGEFFHKWGQGTLVTVSS VL: QSVLTQPPSVSGAPGQRVTISCTGSDSNIGADFDVHWYQQLPGTAPKLLIYGNINRPSGVPDRFSGSKSGTSASLAITGLQAEDEADYYCQSYDRSLHYVFGTGTKVTVL | 0.0254 µg/mL
16 | MPH12 VH / MPH12 VL-D25S (antibody, V domains shown, MPH12 variant; VH and VL only) VH: QVQLVESGGGLVKPGGSLRLSCVASGFTFSGFYMKWIRQAPGKGLEWVSSISASGSYTNYADSVEGRFTVSRDNAKNSLFLLMSSLRAEDTAVYYCARGDSYCGASACHGEFFHKWGQGTLVTVSS VL: QSVLTQPPSVSGAPGQRVTISCTGSSSNIGADFDVHWYQQLPGTAPKLLIYGNINRPSGVPDRFSGSRSGTSAFLAITRLQAEDEADYYCQSYDRSLHYVFGAGTKVTVL | 0.0235 µg/mL
17 | MPH12 VH-FRGL-S63A / MPH12 VL (antibody, V domains shown, MPH12 variant; VH and VL only) VH: QVQLVESGGGLVKPGGSLRLSCAASGFTFSGFYMKWIRQAPGKGLEWVSSISASGSYTNYADAVEGRFTISRDNAKNSLYLQMNSLRAEDTAVYYCARGDSYCGASACHGEFFHKWGQGTLVTVSS VL: QSVLTQPPSVSGAPGQRVTISCTGSDSNIGADFDVHWYQQLPGTAPKLLIYGNINRPSGVPDRFSGSRSGTSAFLAITRLQAEDEADYYCQSYDRSLHYVFGAGTKVTVL | 0.0238 µg/mL
18 | MPH12 VH-D62E / MPH12 VL-D25E (antibody, V domains shown, MPH12 variant; VH and VL only) VH: QVQLVESGGGLVKPGGSLRLSCVASGFTFSGFYMKWIRQAPGKGLEWVSSISASGSYTNYAESVEGRFTVSRDNAKNSLFLLMSSLRAEDTAVYYCARGDSYCGASACHGEFFHKWGQGTLVTVSS VL: QSVLTQPPSVSGAPGQRVTISCTGSESNIGADFDVHWYQQLPGTAPKLLIYGNINRPSGVPDRFSGSRSGTSAFLAITRLQAEDEADYYCQSYDRSLHYVFGAGTKVTVL | 0.0274 µg/mL
19 | MPH12 VH-FRGL-D62E / MPH12 VL-FRGL (antibody, V domains shown, MPH12 variant; VH and VL only) VH: QVQLVESGGGLVKPGGSLRLSCAASGFTFSGFYMKWIRQAPGKGLEWVSSISASGSYTNYAESVEGRFTISRDNAKNSLYLQMNSLRAEDTAVYYCARGDSYCGASACHGEFFHKWGQGTLVTVSS VL: QSVLTQPPSVSGAPGQRVTISCTGSDSNIGADFDVHWYQQLPGTAPKLLIYGNINRPSGVPDRFSGSKSGTSASLAITGLQAEDEADYYCQSYDRSLHYVFGTGTKVTVL | 0.0349 µg/mL

Reference: patent publication US20260028391A1 (HUMABS BIOMED, published 2026)
